Experimental data: patent US20240301076A1 (CEPHALON, published 2024)
Where a chain is given by its changes, count along the chain named. In names and notes the source's numbering stands.

T1: human CXCR2 (human, UniProt P25025 1-360)
T1 sequence: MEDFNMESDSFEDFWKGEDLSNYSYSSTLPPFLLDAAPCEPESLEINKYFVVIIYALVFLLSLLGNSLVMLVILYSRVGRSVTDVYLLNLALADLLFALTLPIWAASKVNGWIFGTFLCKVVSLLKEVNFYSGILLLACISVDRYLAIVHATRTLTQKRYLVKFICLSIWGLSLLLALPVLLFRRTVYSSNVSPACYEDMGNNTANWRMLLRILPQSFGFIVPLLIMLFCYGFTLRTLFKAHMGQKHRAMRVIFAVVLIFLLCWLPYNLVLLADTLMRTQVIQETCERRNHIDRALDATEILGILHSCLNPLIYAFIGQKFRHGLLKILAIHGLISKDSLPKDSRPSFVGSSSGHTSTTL

B1: BKO-4A8 variant VH M96Q (antibody, human IgG4 S228P, lambda, V domains shown)
VH: EVQLLESGGGLVQPGGSLRLSCAASGFTFSSSTMSWVRQAPGKGLEWVSAISGRGRNTYYADSVKGRFTISRDNSRNTLYLQMNSLRAEDTAVYYCAIQQGYWGQGILVTVSS
VL: QSALTQPPSASGSPGQSVTISCIGTSSDVGGYNYVSWYQQHPDKAPKLMIYEVNKRPSGVPDRFSGSKSGNTASLTVSGLQAEDEADYYCSSYAGNNNFGVFGGGTKLTVLG
notes: IgG4 S228P, lambda; parental light chain; also called 4A8 VH M96Q
B2: BKO-4A8 variant VL N94S (antibody, human IgG4 S228P, lambda, V domains shown)
VH: B1 VH with Q100M
VL: B1 VL with N96S
notes: IgG4 S228P, lambda; parental heavy chain; also called 4A8 VL N94S
B3: BKO-4A8 variant VH N56S (antibody, human IgG4 S228P, lambda, V domains shown)
VH: B1 VH with N57S, Q100M
VL: B1 VL
notes: IgG4 S228P, lambda; parental light chain; also called 4A8 VH N56S
B4: BKO-4A8 variant VL N94K (antibody, human IgG4 S228P, lambda, V domains shown)
VH: B1 VH with Q100M
VL: B1 VL with N96K
notes: IgG4 S228P, lambda; parental heavy chain; also called 4A8 VL N94K
B5: BKO-4A8 variant VL N94Y (antibody, human IgG4 S228P, lambda, V domains shown)
VH: B1 VH with Q100M
VL: B1 VL with N96Y
notes: IgG4 S228P, lambda; parental heavy chain; also called 4A8 VL N94Y
B6: BKO-4A8 variant VH M96A (antibody, human IgG4 S228P, lambda, V domains shown)
VH: B1 VH with Q100A
VL: B1 VL
notes: IgG4 S228P, lambda; parental light chain; also called 4A8 VH M96A
B7: BKO-4A8 variant VL N52S (antibody, human IgG4 S228P, lambda, V domains shown)
VH: B1 VH with Q100M
VL: B1 VL with N54S
notes: IgG4 S228P, lambda; parental heavy chain; also called 4A8 VL N52S
B8: BKO-4A8 variant VH M96K (antibody, human IgG4 S228P, lambda, V domains shown)
VH: B1 VH with Q100K
VL: B1 VL
notes: IgG4 S228P, lambda; parental light chain; also called 4A8 VH M96K
B9: BKO-4A8 variant VH M34Q (antibody, human IgG4 S228P, lambda, V domains shown)
VH: B1 VH with M34Q, Q100M
VL: B1 VL
notes: IgG4 S228P, lambda; parental light chain; also called 4A8 VH M34Q
B10: BKO-4A8 variant VH I94K (antibody, human IgG4 S228P, lambda, V domains shown)
VH: B1 VH with I98K, Q100M
VL: B1 VL
notes: IgG4 S228P, lambda; parental light chain; also called 4A8 VH I94K
B11: BKO-4A8 variant VH M34H (antibody, human IgG4 S228P, lambda, V domains shown)
VH: B1 VH with M34H, Q100M
VL: B1 VL
notes: IgG4 S228P, lambda; parental light chain; also called 4A8 VH M34H
B12: BKO-4A8 combinatorial variant 1b (antibody, human IgG4 S228P, lambda, V domains shown)
VH: B1 VH with M34Q, N57S, Q100M
VL: B1 VL with N54S, N96S
notes: IgG4 S228P, lambda
B13: BKO-4A8 combinatorial variant 7c (antibody, human IgG4 S228P, lambda, V domains shown)
VH: B1 VH with M34Q, A40P, N57S, I98K, Q100K
VL: B1 VL with D43G, N54S, N96S
notes: IgG4 S228P, lambda
B14: BKO-4A8 combinatorial variant 9b (antibody, human IgG4 S228P, lambda, V domains shown)
VH: B1 VH with M34Q, N57S, R76K, Q100K
VL: B1 VL with N54S, N96S
notes: IgG4 S228P, lambda
B15: BKO-4A8 combinatorial variant 7b (antibody, human IgG4 S228P, lambda, V domains shown)
VH: B1 VH with M34Q, A40P, N57S, I98K, Q100K
VL: B1 VL with N54S, N96S
notes: IgG4 S228P, lambda
B16: BKO-4A8 combinatorial variant 9c (antibody, human IgG4 S228P, lambda, V domains shown)
VH: B1 VH with M34Q, N57S, R76K, Q100K
VL: B1 VL with D43G, N54S, N96S
notes: IgG4 S228P, lambda
B17: BKO-4A8 combinatorial variant 2b (antibody, human IgG4 S228P, lambda, V domains shown)
VH: B1 VH with M34Q, A40P, N57S, Q100M
VL: B1 VL with N54S, N96S
notes: IgG4 S228P, lambda
B18: BKO-4A8 combinatorial variant 6c (antibody, human IgG4 S228P, lambda, V domains shown)
VH: B1 VH with M34Q, A40P, N57S, R76K, I98K, Q100K
VL: B1 VL with D43G, N54S, N96S
notes: IgG4 S228P, lambda
B19: BKO-4A8 combinatorial variant 2c (antibody, human IgG4 S228P, lambda, V domains shown)
VH: B1 VH with M34Q, A40P, N57S, Q100M
VL: B1 VL with D43G, N54S, N96S
notes: IgG4 S228P, lambda
B20: BKO-4A8 combinatorial variant 4b (antibody, human IgG4 S228P, lambda, V domains shown)
VH: B1 VH with M34Q, A40P, N57S, Q100K
VL: B1 VL with N54S, N96S
notes: IgG4 S228P, lambda
B21: BKO-4A8 combinatorial variant 5b (antibody, human IgG4 S228P, lambda, V domains shown)
VH: B1 VH with M34Q, A40P, N57S, R76K, Q100K
VL: B1 VL with N54S, N96S
notes: IgG4 S228P, lambda
B22: BKO-4A8 combinatorial variant 3c (antibody, human IgG4 S228P, lambda, V domains shown)
VH: B1 VH with M34Q, A40P, N57S, R76K, Q100M
VL: B1 VL with D43G, N54S, N96S
notes: IgG4 S228P, lambda
B23: BKO-4A8 combinatorial variant 3b (antibody, human IgG4 S228P, lambda, V domains shown)
VH: B1 VH with M34Q, A40P, N57S, R76K, Q100M
VL: B1 VL with N54S, N96S
notes: IgG4 S228P, lambda
B24: BKO-4A8 combinatorial variant 5c (antibody, human IgG4 S228P, lambda, V domains shown)
VH: B1 VH with M34Q, A40P, N57S, R76K, Q100K
VL: B1 VL with D43G, N54S, N96S
notes: IgG4 S228P, lambda
B25: BKO-4A8 combinatorial variant 6b (antibody, human IgG4 S228P, lambda, V domains shown)
VH: B1 VH with M34Q, A40P, N57S, R76K, I98K, Q100K
VL: B1 VL with N54S, N96S
notes: IgG4 S228P, lambda
B26: BKO-4A8 combinatorial variant 10b (antibody, human IgG4 S228P, lambda, V domains shown)
VH: B1 VH with I98K, Q100K
VL: B1 VL with N54S, N96S
notes: IgG4 S228P, lambda
B27: BKO-4A8 combinatorial variant 1c (antibody, human IgG4 S228P, lambda, V domains shown)
VH: B1 VH with M34Q, N57S, Q100M
VL: B1 VL with D43G, N54S, N96S
notes: IgG4 S228P, lambda
B28: BKO-4A8 combinatorial variant 4c (antibody, human IgG4 S228P, lambda, V domains shown)
VH: B1 VH with M34Q, A40P, N57S, Q100K
VL: B1 VL with D43G, N54S, N96S
notes: IgG4 S228P, lambda
B29: BKO-4A8 combinatorial variant 10c (antibody, human IgG4 S228P, lambda, V domains shown)
VH: B1 VH with I98K, Q100K
VL: B1 VL with D43G, N54S, N96S
notes: IgG4 S228P, lambda

These binders were tested against T1, human CXCR2 (assay: cell-based or functional assay).

Row | Binder | IC50, CXCL1, Tango assay [nM] | IC50, CXCL8, Tango assay [nM]
1 | B1 | 0.33 | 0.14
2 | B2 | 0.149 | 0.169
3 | B3 | 0.158 | 0.129
4 | B4 | 0.123 | 0.113
5 | B5 | 0.164 | 0.105
6 | B6 | 0.14 | 0.126
7 | B7 | 0.214 | 0.126
8 | B8 | 0.135 | 0.091
9 | B9 | 0.242 | 0.0776
10 | B10 | 0.078 | 0.071
11 | B11 | 0.186 | 0.107

Each binder was assayed against T1, human CXCR2 (assay: flow cytometry, CXCR2-transfected Expi293F cells).
Experimental: (§1) Harvested cells were resuspended in FACS buffer (1×PBS+0.5% (w/v) bovine serum albumin (BSA)+2 mM EDTA pH 7.2). Approximately 2×10⁵ cells were added per well in a 96-well round-bottomed plate. Cells were pelleted by centrifugation at 400 g for 5 mins at 4° C. and supernatants discarded. 25 μL of each test antibody or control antibody was added to the cells and incubated for 30 minutes at 4° C. Cells were washed twice in 100 μL FACS buffer followed by centrifugation at 400 g for 5 mins at 4° C.
(§2) For detection, 50 μL of secondary antibody (Table 2) was added to relevant samples. Commercially available antibodies that bound to transfected CXCR family members were used as positive controls to ensure that the cells were expressing the receptors. Cells were washed twice in 200 μL of FACS buffer followed by centrifugation at 400 g for 5 mins at 4° C. Before sample acquisition, cells were resuspended in 100 μL of FACS buffer. Samples were acquired using the high throughput sampler on a FACSCanto™ II cytometer (Beckton-Dickinson).
Each heavy chain was co-expressed with each light chain to produce a sequence optimized antibody variant. Antibodies were purified and tested for CXCR2 binding activity as described in General Methods.

Row | Binder | EC50 [nM] | Fold Improvement over 4A8 WT [fold]
12 | B12 | 0.3 | 1.33
13 | B13 | 1 | 0.5
14 | B14 | 0.3 | 3
15 | B15 | 0.8 | 0.63
16 | B16 | 6.4 | 0.14
17 | B17 | 0.4 | 1.25
18 | B18 | 0.9 | 0.44
19 | B19 | 0.3 | 1.67
20 | B20 | 0.4 | 1.25
21 | B21 | 0.4 | 1.25
22 | B22 | 0.2 | 2
23 | B23 | 0.1 | 4
24 | B24 | 0.4 | 1.25
25 | B25 | 0.4 | 1
26 | B26 | 0.3 | 1.67
27 | B27 | 0.3 | 1.33
28 | B28 | 0.4 | 1.25
29 | B29 | 0.5 | 1

Target: T1, human CXCR2
Test: flow cytometry, CXCR2-transfected Expi293F cells
Remark: another data set of the same source
Experimental: as §1, §2
Each variant heavy chain was co-expressed with the parental light chain and vice versa.

Row | Binder | Fold change in binding relative to BKO-4A8 [fold]
30 | B1 | 1.5
31 | B2 | 1
32 | B3 | 1
33 | B4 | 1.33
34 | B5 | 0.5
35 | B6 | 1.5
36 | B7 | 1
37 | B8 | 1
38 | B9 | 1
39 | B10 | 0.7
40 | B11 | 0.8
